According to patent US20120201826A1 (NOV IMMUNE S A, published 2012):
Where a chain is given by its changes, count along the chain named.

What was measured:
[1] = target: T1, recombinant human RANTES (huRANTES, Peprotech) (human, UniProt P13501 24-91); test: cell-based or functional assay
T1 sequence: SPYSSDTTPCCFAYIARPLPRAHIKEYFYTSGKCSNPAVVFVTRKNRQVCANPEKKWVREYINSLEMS

[2] = target: T2, native human RANTES produced by THP1 cells (human, UniProt P13501 24-91); test: cell-based or functional assay
T2 sequence: T1 sequence

[3] = target: T1, recombinant human RANTES (huRANTES, …); test: cell-based or functional assay; remark: listed apart in the source
[4] = target: T1, recombinant human RANTES (huRANTES, …); test: cell-based or functional assay; remark: listed apart in the source
[5] = target: T2, native human RANTES produced by THP1 …; test: cell-based or functional assay; remark: listed apart in the source
[6] = target: T3, rat RANTES, expressed as fusion protein (ELISA panel) (rat, UniProt P30882 24-91 (mouse entry), Biotinylated in vivo at the AviTag, which is not in the letters); test: ELISA, chemokine coated at 5 ug/ml, concentration range of 1E4
T3 construct: not shown: NusA fusion partner with Factor X site, and the C-terminal AviTag
T3 sequence (P30882 24-91 limits assumed): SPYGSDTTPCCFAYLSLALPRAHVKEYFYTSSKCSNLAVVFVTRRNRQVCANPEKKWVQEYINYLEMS

[7] = target: T1, recombinant human RANTES (huRANTES, …); test: SPR (Biacore 2000), 1E4 captured on anti-human IgG, chemokine as analyte, 25 C, 1:1 Langmuir fit
Method: (§1) 433 RU (response unit) of a donkey anti-human IgG polyclonal antibody were immobilized by EDC/NHS chemistry on a C1 Biacore chip. […] The surface was regenerated after each cycle by injection of 10 mM glycine pH=2 at 30 μL/min, for 60s followed by 1 min. of stabilization time in HBS-EP buffer.
(§2) All proteins were diluted in the running buffer HBS-EP buffer (Biacore AB, Uppsala, Sweden). Injection was performed at 75 μl/min for 3 min. followed by 15 min. of dissociation time and the temperature was set at 25° C.

[8] = target: T4, NusA-huRANTES fusion protein (human, UniProt P13501 24-91, biotinylated in vivo at the AviTag); test: as above
T4 construct: GenBank M21121 is printed for the human RANTES gene; also called NusA-Rantes; not shown: NusA fusion partner of expression plasmid pET43 (Novagen); Factor X protease cleavage site at the C-terminus of NusA; AviTag biotinylation site at the C-terminus of the chemokine
T4 sequence: T1 sequence
Method: as §1, §2

[9] = target: T5, NusA-cynoRANTES fusion protein (cynomolgus monkey, UniProt Q8HYQ1 24-91 (rhesus entry), biotinylated in vivo at the AviTag); test: as above
T5 construct: also called cynomolgus RANTES; not shown: NusA fusion partner of expression plasmid pET43 (Novagen); Factor X protease cleavage site at the C-terminus of NusA; AviTag biotinylation site at the C-terminus of the chemokine
T5 sequence: T1 sequence with Y3H, S4A
Method: as §1, §2

[10] = target: T6, moIP-10 (mouse, UniProt P17515); test: ELISA: chemokine fusion protein coated at 5 µg/ml, titration of 1E4, anti-human Fc-gamma-HRP and fluorescent substrate
T6 construct: coated protein of the ELISA panel; also called mouse IP-10
T6 sequence (chemokine, looked up): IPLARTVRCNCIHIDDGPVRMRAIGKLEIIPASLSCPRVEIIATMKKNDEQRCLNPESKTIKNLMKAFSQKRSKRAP

[11] = target: T7, ratIP-10 (rat, UniProt P48973); test: as above
T7 construct: coated protein of the ELISA panel
T7 sequence (chemokine, looked up): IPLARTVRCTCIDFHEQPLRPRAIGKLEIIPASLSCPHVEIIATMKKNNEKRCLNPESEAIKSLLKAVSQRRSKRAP

[12] = target: T4, NusA-huRANTES fusion protein; test: as above
[13] = target: T5, NusA-cynoRANTES fusion protein; test: as above
[14] = target: T8, mouse RANTES, expressed as fusion protein (ELISA panel) (mouse, UniProt P30882 24-91, Biotinylated in vivo at the AviTag, which is not in the letters); test: as above
T8 construct: not shown: NusA fusion partner with Factor X site, and the C-terminal AviTag
T8 sequence (P30882 24-91 limits assumed): as the sequence (P30882 24-91 limits assumed) above

[15] = target: T9, mouse RANTES, biotinylated in vivo (Example 14) (mouse, UniProt P30882 24-91, biotinylated in vivo at the AviTag); test: ELISA: biotinylated chemokine captured on Streptawell plate, 1E4 at 1 µg/ml, goat anti-human IgG Fc-gamma-HRP, TMB, OD450
T9 construct: Captured on streptavidin plates; not shown: AviTag biotinylation site at the C-terminus
T9 sequence (P30882 24-91): as the sequence (P30882 24-91 limits assumed) above
Method: Three mutants of mouse RANTES were generated by site directed mutagenesis in order to introduce the human residues at those positions: [S16A/L17R/A18P]; [S32G/L37P] and [Q59R/Y64S]. […] These variant of mouse RANTES were captured in streptavidin coated plates (Streptawell, Roche). […] The plate was washed and incubated with a goat anti-human IgG Fcγ-specific antibody coupled to horse radish peroxidase (Jackson). […] The plates were read at 450 nm.

- Chemotaxis IC50 (nM), 0.2 nM huRANTES; L1.2-hCCR5 cells; IgG1 format [1]: 0.034 nM
- Chemotaxis IC50 (nM), 1 nM huRANTES; L1.2-hCCR5 cells; IgG1 format [1]: 0.46 nM
- Chemotaxis IC50 (nM), native huRANTES from THP1 cells; L1.2-hCCR5 cells; IgG1 format [2]: 0.028 nM
- Calcium flux IC50 (nM); L1.2-hCCR1; 25 nM huRANTES [3]: 4.9 nM
- Calcium flux IC50 (nM); L1.2-hCCR3; 25 nM huRANTES [3]: 4.46 nM
- Calcium flux IC50 (nM); L1.2-hCCR5; 4 nM huRANTES [3]: 0.54 nM
- Chemotaxis IC50 (nM); L1.2-hCCR1; 2 nM huRANTES [4]: 0.46 nM
- Chemotaxis IC50 (nM); L1.2-hCCR3; 10 nM huRANTES [4]: 3.33 nM
- Chemotaxis IC50 (nM); L1.2-hCCR5; 1 nM huRANTES [4]: 0.2 nM
- Chemotaxis IC50 (nM); L1.2-hCCR5; 1 nM native huRANTES [5]: 0.09 nM
- binding result [6]: no binding
- Kd [7]: 0.455 nM
- Kd [8]: 0.447 nM
- Kd [9]: 2.24 nM
- binding result [10]: no binding (tested: about 3 µg/ml)
- binding result [11]: no binding (tested: about 3 µg/ml)
- EC50 (read off the curve) [12]: ~0.01 µg/mL
- EC50 (read off the curve) [13]: ~0.01 µg/mL
- binding result [14]: no binding (tested: about 3 µg/ml)
- binding result [15]: no binding (tested: 1 µg/ml)
B1: 1E4 antibody, IgG1 format (antibody, V domains shown)
VH: QVQLVQSGAEVKKPGASVKVSCKVSGYTLTEFAMHWVRQAPGKGLEWMGGFVPEDGETIYAQKFQGRVTMTEDTSTDTAYMELSSLRSEDTAVYYCATDPLYEGSFSVWGQGTTVTVSS
VL: SYVLTQPPSVSVAPGQTARITCGGNNIESKSVHWYQQKPGQAPVLVVYDDSDRPSGIPERFSGSNSGNTATLTISRVEAGDEADYYCQVWDSNTDHWVFGGGTKLTVLG
notes: also called antibody 1E4 purified from CHO supernatant
